Results reported in US20190194350A1.

Experiments:
[1] = biological target: His-tagged extracellular domain of EGFR (aa 20-643) (UniProt P00533); assay: ELISA, coated EGFR-His
[2] = biological target: His-tagged extracellular domain of EGFR (aa 20-643) (UniProt P00533); assay: ELISA, coated EGFR-His, detection with HRP anti-human Fc antibody; the legend paragraph 41 and paragraph 295 name Cetuximab as this control, the sheet prints hu225-IgG [panel EGFR-His]

EC50 [1]: 0.2 nM
EC50 (read off the curve) [2]: 0.2 nM
B1: hu225-IgG (antibody, V domains shown)
VH: EVQLVESGGGLVQPGGSLRLSCAASGFSLTNYGVHWVRQAPGKGLEWLGVIWSGGNTDYNTPFTSRFTISRDNSKNTLYLQMNSLRAEDTAVYYCARALTYYDYEFAYWGQGTTVTVSS
VL: DIQLTQSPSFLSASVGDRVTITCRASQSIGTNIHWYQQKPGKAPKLLIKYASESISGVPSRFSGSGSGTEFTLTISSLQPEDFATYYCQQNNNWPTTFGAGTKLEIK
